{"source": "paper PMC5548745", "about": "“Agonist-induced dimer dissociation as a macromolecular step in G protein-coupled receptor signaling” (Nature Communications, 2017)", "key": {"[1]": {"test_system": "SNAP-β2-adrenergic receptor", "test": "SNAP-β2-AR internalization by confocal microscopy", "format": "cell-based", "settings": "HEK293; isoproterenol 10 µM, 15 min", "description": "SNAP-FZD6 and SNAP-β2-AR were imaged in living cells using a Zeiss LSM710 equipped with a 40×, 1.2 NA C-Apochromat objective. The cell-impermeable SNAP substrate SNAP-Surface 549 (New England Biolabs) was added (1:1000, 15 min), washed twice in BE buffer and imaged using the 561 nm laser line. SNAP-FZD6 and SNAP-β2-AR were stimulated with 300 ng ml^−1 WNT-5A and 10 µM isoproterenol, respectively, and fluorescence was monitored over time."}, "[2]": {"test_system": "subcellular localization in HEK293 cells", "test": "co-localization of FZD6-R511C with FZD6 constructs", "format": "cell-based, human", "settings": "FZD6-R511C with FZD6-mCherry, or FZD6 dimer mutant with FZD6-R511C"}, "FZD6–FZD6 dimer": {"test_system": "FZD6–FZD6 dimer", "test": "dcFRAP of V5-FZD6-mCherry/FZD6-GFP (FZD6 dimerization)", "format": "cell-based, human", "settings": "HEK293; GFP-tagged mutant with wt V5-FZD6-mCherry; anti-V5/avidin crosslinking", "outline": "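Live cells co-expressing V5-FZD6-mCherry and FZD6-GFP, surface V5 tag crosslinked with biotin-anti-V5 plus avidin in BE buffer at RT. Membrane areas photobleached, recovery imaged (488/561 nm) over 100 s; mobile fraction from background/bleach-corrected, pre-bleach-normalized intensity at 85-101 s. Cells with <40% crosslink-induced mobility reduction excluded.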"}, "DVL2-GFP": {"test_system": "DVL2-GFP", "test": "dcFRAP with chemical surface crosslinking, FZD6 dimer mutant/DVL2-GFP", "format": "cell-based", "settings": "inactive state", "description": "For dual color FRAP experiments, cells grown in four compartment 35 mm glass bottom dishes were washed three times with BE buffer[19] (150 mM NaCl, 2.5 mM KCl, 10 mM HEPES, 12 mM glucose, 0.5 mM CaCl2, and 0.5 mM MgCl2). Then, the cells were incubated at RT for 30 min with biotin-conjugated goat polyclonal anti-V5 antibody (Bethyl) diluted 1:100 in BE buffer supplemented with 2.5% bovine serum albumin. For antibody-mediated cross-linking, avidin was added and incubated for 15 min and washed two times with BE buffer before the experiments were performed. […] Fluorescence was measured pre- and post-bleach using low-intensity illumination for a total time period of 100 s. Average pixel intensity was measured using the ZEN2013 software, corrected for background fluctuations and bleaching artifacts and normalized to pre-bleached intensity. The recovered mobile fraction (F m) was calculated as follows: F m = (I P–I 0)/(I I–I 0), where I I is the initial intensity measured prior to bleaching, I 0 is the immediate fluorescence intensity post-bleaching and I P is intensity value post-bleaching. The mobile fraction was defined by the average of the fluorescence recovery assessed between time 85–101 s (including pre-bleach measurements). […]"}, "[3]": {"test_system": "ERK1/2 phosphorylation in HEK293 cells", "test": "P-ERK1/2 immunoblot, HEK293 cells expressing SNAP-FZD6 constructs", "format": "cell-based", "description": "Fig. 6 Relationship between FZD6 dimerization and phosphorylation of ERK1/2. a Mouse lung epithelial (MLE-12) cells were stimulated with WNT-5A (300 ng ml^−1) for 0, 2.5, 5, 10, 20 min. Cell lysates were analyzed for P-ERK1/2 and β-actin by immunoblotting. Additional information in Supplementary Fig. 6. b Bar graph summarizes three independent experiments. Densitometry data were normalized to the unstimulated control. […] Additional information in Supplementary Fig. 6. SNAP-FZD6 wt- and SNAP-FZD6 dimer mutant-induced ERK1/2 phosphorylation in the absence e and presence f of the porcupine inhibitor C59 (5 µM, overnight) were probed by immunoblotting for the SNAP-tag, P-ERK1/2, total ERK1/2 and β-actin. g The bar graph summarizes densitometry data of P-ERK1/2 normalized to total ERK1/2 from 6 different experiments. P = 0.0005; F (2, 15) = 13.08. ***P < 0.001. Empty vector transfection was used as mock. h Increasing amounts of plasmid of either SNAP-FZD6 wt or SNAP-FZD6 dimer mutant in the presence of C59 show a dose-dependent increase in P-ERK1/2 only with the dimer mutant. Data from three independent experiments for the dimer mutant were fit to a linear least-squares model (slope = 0.40 ± 0.10; R ^2 = 0.5943) and this line is shown superimposed. […] This dissociation-dependent activation can be evoked by agonist (WNT^high) or mutation of the dimer interface (symbolized by red stars). WNT^low conditions can be achieved in the presence of C59, which reduces FZD6 wt signaling\nMLE-12 or HEK293 cells (ATCC) were plated in a 24- or 48-well plate at a density of 100,000 or 50,000 cells/well, respectively. After 24 h, cells were transfected using Lipofectamine 2000 according to the manufacturer’s instructions. Cells were stimulated (24 h post-transfection) with 300 ng ml^−1 recombinant carrier-free WNT-5A (CF WNT-5A; R&D Systems). Stimulation was stopped by the addition of lysis buffer (1% NP-40, 150 mM NaCl, 50 mM Tris/HCl pH 8). Lysates were sonicated and analyzed by 7.5 or 10% Mini-PROTEAN TGX precast polyacrylamide gels (Bio-Rad) and transferred to PVDF membranes using the Trans-Blot Turbo system (Bio-Rad). After blocking with 5% milk or BSA in TBS-T, membranes were incubated with primary antibodies in blocking buffer: mouse anti-β-actin (1:30,000; Sigma #A5441), rabbit anti-FZD6 (1:1000; NovusBio #NBP1-00830), rabbit anti-Phospho-p44/42 MAPK (ERK1/2) (Thr202/Tyr204) (1:1000; Cell Signaling Technology #9101 L), rabbit anti-p44/42 MAPK (ERK1/2) (1:1000; Cell Signaling Technology #9102), rabbit anti-Phospho-C-RAF (Ser338) (1:1000; Cell Signaling Technology #56A6), rabbit anti-SNAP tag (1:1000, New England Biolabs #P9310S), and rabbit anti-HA (1:4000, abcam #ab9110) overnight at 4 °C. Proteins were detected with horseradish peroxidase-conjugated secondary antibodies (goat anti-rabbit and goat anti-mouse (Pierce)) and Clarity Western ECL Blotting Substrate (Bio-Rad). All uncropped immunoblots can be found in the Supplementary Information."}, "Gαi1-GFP": {"test_system": "Gαi1-GFP", "settings": "cited from earlier work"}}, "data": [{"molecule": "CC(C)NCC(O)c1ccc(O)c(O)c1", "note": "(stereo not drawn) [isoproterenol]", "values": [{"measurement": "internalization of SNAP-β2-adrenergic receptor", "setting": "[1]", "result": "appearance of numerous endosome-like structures after 15 min"}]}, {"molecule": "FZD6 dimer mutant: D365A, R368A, Y369A triple mutant of FZD6 (protein, left off: GFP, C-terminal, kept) HSLFTCEPITVPRCMKMAYNMTFFPNLMGHYDQSIAAVEMEHFLPLANLECSPNIETFLCKAFVPTCIEQIHVVPPCRKLCEKVYSDCKKLIDTFGIRWPEELECDRLQYCDETVPVTFDPHTEFLGPQKKTEQVQRDIGFWCPRHLKTSGGQGYKFLGIDQCAPPCPNMYFKSDELEFAKSFIGTVSIFCLCATLFTFLTFLIDVRRFRYPERPIIYYSVCYSIVSLMYFIGFLLGDSTACNKADEKLELGDTVVLGSQNKACTVLFMLLYFFTMAGTVWWVILTITWFLAAGRKWSCEAIEQKAVWFHAVAWGTPGFLTVMLLAMNKVEGDNISGVCFVGLYDLAASAAFVLLPLCLCVFVGLSLLLAGIISLNHVRQVIQHDGRNQEKLKKFMIRIGVFSGLYLVPLVTLLGCYVYEQVNRITWEITWVSDHCRQYHIPCPYQAKAKARPELALFMIKYLMTLIVGISAVFWVGSKKTCTEWAGFFKRNRKRDPISESRRVLQESCEFFLKHNSKVKHKKKHYKPSSHKLKVISKSMGTSTGATANHGTSAVAITSHDYLGQETLTEIQTSPETSMREVKADGASTPRLREQDCGEPASPAASISRLSGEQVDGKGQAGSVSESARSEGRISPKSDITDTGLAQSNNLQVPSSSEPSSLKGSTSLLVHPVSGVRKEQGGGCHSDT", "values": [{"measurement": "subcellular localization on co-expression", "setting": "[2]", "result": "maintained cell surface localization"}, {"measurement": "dimerization by CL-induced decrease of mobile fraction", "setting": "FZD6–FZD6 dimer", "result": "did not result in a decrease of the mobile fraction of FZD6-GFP"}, {"measurement": "assembly with DVL", "setting": "DVL2-GFP", "result": "retained the ability to interact with the scaffold protein DVL"}, {"measurement": "P-ERK1/2 induction in presence of C59", "setting": "[3]; HEK293, C59 5 µM overnight", "result": "maintained its ability to induce ERK1/2 phosphorylation"}, {"measurement": "slope of P-ERK1/2 vs plasmid amount", "setting": "[3]; HEK293, C59, linear least-squares, R^2 = 0.5943, three independent experiments", "result": "0.40 ± 0.10"}, {"measurement": "effect of overexpression on basal P-ERK1/2 without C59", "setting": "[3]; serum-starved HEK293, no C59", "result": "increased basal P-ERK1/2"}]}, {"molecule": "FZD6-R511C: DVL-biased FZD6 nail dysplasia mutant (protein, UniProt O60353 19-706, looked up, variant R511C, GFP or mCherry tag, DVL-biased FZD6 nail dysplasia mutant) Frizzled-6: HSLFTCEPITVPRCMKMAYNMTFFPNLMGHYDQSIAAVEMEHFLPLANLECSPNIETFLCKAFVPTCIEQIHVVPPCRKLCEKVYSDCKKLIDTFGIRWPEELECDRLQYCDETVPVTFDPHTEFLGPQKKTEQVQRDIGFWCPRHLKTSGGQGYKFLGIDQCAPPCPNMYFKSDELEFAKSFIGTVSIFCLCATLFTFLTFLIDVRRFRYPERPIIYYSVCYSIVSLMYFIGFLLGDSTACNKADEKLELGDTVVLGSQNKACTVLFMLLYFFTMAGTVWWVILTITWFLAAGRKWSCEAIEQKAVWFHAVAWGTPGFLTVMLLAMNKVEGDNISGVCFVGLYDLDASRYFVLLPLCLCVFVGLSLLLAGIISLNHVRQVIQHDGRNQEKLKKFMIRIGVFSGLYLVPLVTLLGCYVYEQVNRITWEITWVSDHCRQYHIPCPYQAKAKARPELALFMIKYLMTLIVGISAVFWVGSKKTCTEWAGFFKRNCKRDPISESRRVLQESCEFFLKHNSKVKHKKKHYKPSSHKLKVISKSMGTSTGATANHGTSAVAITSHDYLGQETLTEIQTSPETSMREVKADGASTPRLREQDCGEPASPAASISRLSGEQVDGKGQAGSVSESARSEGRISPKSDITDTGLAQSNNLQVPSSSEPSSLKGSTSLLVHPVSGVRKEQGGGCHSDT", "values": [{"measurement": "subcellular localization on co-expression", "setting": "[2]", "result": "predominant intracellular localization of both constructs"}, {"measurement": "assembly with Gαi1/Gαq proteins", "setting": "Gαi1-GFP", "result": "does not assemble with Gαi1/Gαq proteins"}]}]}
